Assay results as given in patent US10287362.
Where two headings read alike, the source gives them in different places.

T1: human CD73 ECD (human, UniProt P21589)
T1 chain: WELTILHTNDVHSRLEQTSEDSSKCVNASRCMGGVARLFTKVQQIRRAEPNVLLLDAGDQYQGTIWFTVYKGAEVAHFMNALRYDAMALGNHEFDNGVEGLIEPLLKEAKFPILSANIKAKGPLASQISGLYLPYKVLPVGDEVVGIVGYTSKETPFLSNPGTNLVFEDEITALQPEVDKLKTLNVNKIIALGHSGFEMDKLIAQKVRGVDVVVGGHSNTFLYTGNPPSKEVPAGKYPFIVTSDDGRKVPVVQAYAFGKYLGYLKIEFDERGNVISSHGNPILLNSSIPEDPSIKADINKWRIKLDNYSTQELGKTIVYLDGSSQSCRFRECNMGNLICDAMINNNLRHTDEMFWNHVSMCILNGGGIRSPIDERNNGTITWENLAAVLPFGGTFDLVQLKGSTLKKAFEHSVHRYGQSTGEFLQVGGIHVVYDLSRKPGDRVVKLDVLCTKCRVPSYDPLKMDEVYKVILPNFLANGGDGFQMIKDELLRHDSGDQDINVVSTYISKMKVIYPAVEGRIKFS

T2: murine CD73 ECD (mouse, UniProt Q61503)
T2 chain: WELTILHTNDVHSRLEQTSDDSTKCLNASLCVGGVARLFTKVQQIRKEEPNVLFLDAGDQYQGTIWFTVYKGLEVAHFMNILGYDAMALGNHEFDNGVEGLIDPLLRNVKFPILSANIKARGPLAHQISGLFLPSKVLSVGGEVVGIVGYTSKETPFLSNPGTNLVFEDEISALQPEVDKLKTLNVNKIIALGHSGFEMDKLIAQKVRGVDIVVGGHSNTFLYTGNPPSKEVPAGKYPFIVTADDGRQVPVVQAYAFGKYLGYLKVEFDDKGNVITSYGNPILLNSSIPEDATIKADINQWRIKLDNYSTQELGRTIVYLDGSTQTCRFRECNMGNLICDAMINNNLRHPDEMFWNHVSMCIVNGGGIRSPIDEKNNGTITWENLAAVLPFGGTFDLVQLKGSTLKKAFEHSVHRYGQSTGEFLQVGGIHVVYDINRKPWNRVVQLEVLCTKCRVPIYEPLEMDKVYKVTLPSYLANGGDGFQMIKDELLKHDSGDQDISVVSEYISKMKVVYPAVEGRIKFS

T3: human CD73 on MDA-MB-231 cells (human, UniProt P21589)
T3 chain: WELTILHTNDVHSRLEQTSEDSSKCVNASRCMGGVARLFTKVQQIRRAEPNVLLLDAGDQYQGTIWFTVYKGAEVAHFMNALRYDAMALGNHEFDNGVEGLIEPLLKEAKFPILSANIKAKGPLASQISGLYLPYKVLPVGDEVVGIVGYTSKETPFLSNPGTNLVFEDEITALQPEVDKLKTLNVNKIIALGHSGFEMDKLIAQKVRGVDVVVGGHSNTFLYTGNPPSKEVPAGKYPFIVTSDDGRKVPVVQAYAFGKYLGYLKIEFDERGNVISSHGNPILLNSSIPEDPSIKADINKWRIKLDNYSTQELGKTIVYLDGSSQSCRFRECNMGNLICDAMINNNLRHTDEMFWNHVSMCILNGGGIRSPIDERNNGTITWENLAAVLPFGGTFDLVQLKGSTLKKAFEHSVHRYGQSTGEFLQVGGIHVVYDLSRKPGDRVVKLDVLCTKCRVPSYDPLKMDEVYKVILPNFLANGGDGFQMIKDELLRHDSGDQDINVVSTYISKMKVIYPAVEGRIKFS

T4: murine CD73 on 4T1 cells (mouse, UniProt Q61503)
T4 chain: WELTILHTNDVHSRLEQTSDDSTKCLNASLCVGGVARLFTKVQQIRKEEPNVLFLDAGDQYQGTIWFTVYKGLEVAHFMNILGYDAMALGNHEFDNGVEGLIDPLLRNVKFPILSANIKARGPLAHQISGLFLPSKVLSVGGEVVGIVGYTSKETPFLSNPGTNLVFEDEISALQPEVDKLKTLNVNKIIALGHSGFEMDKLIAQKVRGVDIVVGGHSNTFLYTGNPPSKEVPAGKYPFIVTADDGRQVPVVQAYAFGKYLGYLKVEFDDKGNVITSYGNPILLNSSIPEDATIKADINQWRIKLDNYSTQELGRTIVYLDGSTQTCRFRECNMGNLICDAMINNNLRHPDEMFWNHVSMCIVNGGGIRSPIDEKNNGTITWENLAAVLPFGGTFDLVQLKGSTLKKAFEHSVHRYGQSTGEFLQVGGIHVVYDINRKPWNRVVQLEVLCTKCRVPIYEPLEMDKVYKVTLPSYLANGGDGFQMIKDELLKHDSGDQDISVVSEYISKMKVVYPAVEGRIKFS

T5: CD73 V144K (human, UniProt P21589)
T5 chain: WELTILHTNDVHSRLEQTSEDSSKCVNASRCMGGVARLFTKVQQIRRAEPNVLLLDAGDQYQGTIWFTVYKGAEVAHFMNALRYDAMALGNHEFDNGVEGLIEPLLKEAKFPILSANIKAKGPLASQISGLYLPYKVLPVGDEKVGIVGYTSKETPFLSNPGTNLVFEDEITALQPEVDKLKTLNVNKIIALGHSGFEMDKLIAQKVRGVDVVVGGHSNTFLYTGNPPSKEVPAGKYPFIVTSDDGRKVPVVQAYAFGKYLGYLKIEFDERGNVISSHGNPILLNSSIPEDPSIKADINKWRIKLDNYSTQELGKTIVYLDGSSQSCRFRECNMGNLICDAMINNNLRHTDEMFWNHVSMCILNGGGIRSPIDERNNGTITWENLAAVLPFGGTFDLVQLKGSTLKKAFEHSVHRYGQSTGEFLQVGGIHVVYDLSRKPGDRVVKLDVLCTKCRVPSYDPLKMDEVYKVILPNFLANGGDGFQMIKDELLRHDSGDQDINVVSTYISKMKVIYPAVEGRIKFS

T6: CD73 N185G (human, UniProt P21589)
T6 chain: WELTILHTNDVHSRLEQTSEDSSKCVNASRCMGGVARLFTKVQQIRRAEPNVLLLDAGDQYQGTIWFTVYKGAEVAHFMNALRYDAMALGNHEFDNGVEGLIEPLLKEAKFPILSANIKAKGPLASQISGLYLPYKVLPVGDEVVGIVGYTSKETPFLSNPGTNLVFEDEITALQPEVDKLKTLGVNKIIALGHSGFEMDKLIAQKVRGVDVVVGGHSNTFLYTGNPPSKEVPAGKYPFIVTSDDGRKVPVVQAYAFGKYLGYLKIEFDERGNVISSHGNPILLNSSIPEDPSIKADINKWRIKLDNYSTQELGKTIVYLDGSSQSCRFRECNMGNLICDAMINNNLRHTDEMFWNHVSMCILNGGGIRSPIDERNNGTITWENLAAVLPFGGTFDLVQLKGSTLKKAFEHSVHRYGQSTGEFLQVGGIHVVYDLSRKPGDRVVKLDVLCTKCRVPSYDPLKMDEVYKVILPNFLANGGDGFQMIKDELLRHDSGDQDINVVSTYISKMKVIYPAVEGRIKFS

T7: CD73 V144K+K180A (human, UniProt P21589)
T7 chain: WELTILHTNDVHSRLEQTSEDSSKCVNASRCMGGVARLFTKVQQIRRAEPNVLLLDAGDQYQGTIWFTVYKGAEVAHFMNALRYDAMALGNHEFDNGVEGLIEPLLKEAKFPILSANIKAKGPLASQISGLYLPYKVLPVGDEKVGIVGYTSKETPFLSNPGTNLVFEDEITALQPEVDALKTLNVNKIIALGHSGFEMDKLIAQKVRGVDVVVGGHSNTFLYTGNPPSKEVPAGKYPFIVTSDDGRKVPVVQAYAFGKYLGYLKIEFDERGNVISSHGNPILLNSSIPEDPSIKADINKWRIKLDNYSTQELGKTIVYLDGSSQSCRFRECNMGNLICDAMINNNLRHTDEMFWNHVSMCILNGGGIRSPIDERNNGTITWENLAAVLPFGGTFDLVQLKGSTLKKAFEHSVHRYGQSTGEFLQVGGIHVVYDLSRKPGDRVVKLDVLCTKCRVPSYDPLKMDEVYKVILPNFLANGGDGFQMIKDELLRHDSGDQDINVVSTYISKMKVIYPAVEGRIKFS

T8: CD73 K180A (human, UniProt P21589)
T8 chain: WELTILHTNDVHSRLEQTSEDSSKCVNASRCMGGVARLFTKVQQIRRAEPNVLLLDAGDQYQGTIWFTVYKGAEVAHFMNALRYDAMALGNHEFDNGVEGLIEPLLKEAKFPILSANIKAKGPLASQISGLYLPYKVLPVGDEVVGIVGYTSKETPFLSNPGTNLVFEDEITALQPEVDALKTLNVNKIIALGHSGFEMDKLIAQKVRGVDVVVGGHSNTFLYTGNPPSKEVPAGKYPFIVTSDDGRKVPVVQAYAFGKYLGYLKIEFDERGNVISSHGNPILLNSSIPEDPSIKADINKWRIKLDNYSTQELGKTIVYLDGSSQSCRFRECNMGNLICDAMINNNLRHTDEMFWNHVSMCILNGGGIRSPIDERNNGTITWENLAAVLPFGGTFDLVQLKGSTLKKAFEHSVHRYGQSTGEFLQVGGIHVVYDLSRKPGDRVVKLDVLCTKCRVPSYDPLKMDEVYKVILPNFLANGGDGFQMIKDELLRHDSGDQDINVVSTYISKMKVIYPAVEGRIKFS

T9: CD73 V144K+N185G (human, UniProt P21589)
T9 chain: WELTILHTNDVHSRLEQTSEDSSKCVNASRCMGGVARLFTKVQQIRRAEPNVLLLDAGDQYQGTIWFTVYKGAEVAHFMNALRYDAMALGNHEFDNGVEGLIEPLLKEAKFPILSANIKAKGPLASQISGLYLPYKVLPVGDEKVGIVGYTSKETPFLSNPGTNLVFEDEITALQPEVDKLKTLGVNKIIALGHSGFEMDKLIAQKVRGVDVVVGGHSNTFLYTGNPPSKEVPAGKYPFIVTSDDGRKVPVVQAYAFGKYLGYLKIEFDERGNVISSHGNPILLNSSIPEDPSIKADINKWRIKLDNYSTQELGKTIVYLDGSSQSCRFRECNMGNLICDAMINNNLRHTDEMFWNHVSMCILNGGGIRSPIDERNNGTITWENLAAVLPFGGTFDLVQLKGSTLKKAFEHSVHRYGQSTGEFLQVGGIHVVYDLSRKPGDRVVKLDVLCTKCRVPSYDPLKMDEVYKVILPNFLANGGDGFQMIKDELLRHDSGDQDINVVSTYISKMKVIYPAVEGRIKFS

T10: CD73 K180A+N185G (human, UniProt P21589)
T10 chain: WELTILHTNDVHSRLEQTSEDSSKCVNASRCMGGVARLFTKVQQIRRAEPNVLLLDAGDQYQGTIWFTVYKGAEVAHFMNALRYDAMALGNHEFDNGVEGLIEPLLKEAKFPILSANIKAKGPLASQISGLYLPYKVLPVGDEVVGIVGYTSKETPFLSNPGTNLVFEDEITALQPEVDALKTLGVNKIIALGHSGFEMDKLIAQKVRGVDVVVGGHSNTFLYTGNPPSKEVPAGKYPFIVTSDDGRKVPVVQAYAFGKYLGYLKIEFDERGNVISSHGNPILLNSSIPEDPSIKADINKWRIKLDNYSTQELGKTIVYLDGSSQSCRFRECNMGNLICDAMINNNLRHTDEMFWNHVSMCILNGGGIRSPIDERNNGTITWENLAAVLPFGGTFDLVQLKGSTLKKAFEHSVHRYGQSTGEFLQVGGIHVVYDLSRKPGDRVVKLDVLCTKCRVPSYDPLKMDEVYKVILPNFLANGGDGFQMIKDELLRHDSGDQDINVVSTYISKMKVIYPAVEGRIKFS


What was measured:
human CD73 ECD [1] = biological target: T1, human CD73 ECD; assay: SPR
murine CD73 ECD [2] = biological target: T2, murine CD73 ECD; assay: SPR
murine CD73 ECD [3] = biological target: T2, murine CD73 ECD; assay: SPR
human CD73 ECD [4] = biological target: T1, human CD73 ECD; assay: SPR
[5] = biological target: T3, human CD73 on MDA-MB-231 cells; assay: FACS
murine CD73 on 4T1 cells [6] = biological target: T4, murine CD73 on 4T1 cells; assay: FACS
murine CD73 on 4T1 cells [7] = biological target: T4, murine CD73 on 4T1 cells; assay: FACS
[8] = biological target: T3, human CD73 on MDA-MB-231 cells; assay: FACS
CD73 V144K = biological target: T5, CD73 V144K; assay: SPR, bivalent
CD73 N185G = biological target: T6, CD73 N185G; assay: SPR, bivalent
CD73 V144K+K180A = biological target: T7, CD73 V144K+K180A; assay: SPR, bivalent
CD73 K180A = biological target: T8, CD73 K180A; assay: SPR, bivalent
CD73 V144K+N185G = biological target: T9, CD73 V144K+N185G; assay: SPR, bivalent
CD73 K180A+N185G = biological target: T10, CD73 K180A+N185G; assay: SPR, bivalent
human CD73 ECD [9] = biological target: T1, human CD73 ECD; assay: SPR, bivalent
human CD73 ECD [10] = biological target: T1, human CD73 ECD

Binder | Kd (human CD73 ECD [1]) [pM] | Kd (murine CD73 ECD [2]) [pM] | Kd (murine CD73 ECD [3]) [pM] | Kd (human CD73 ECD [4]) [pM] | Kd [5] [pM] | Kd (murine CD73 on 4T1 cells [6]) [pM] | Kd (murine CD73 on 4T1 cells [7]) [pM] | Kd [8] [pM] | Kd (CD73 V144K) [pM] | Kd (CD73 N185G) [pM] | Kd (CD73 V144K+K180A) [pM] | Kd (CD73 K180A) [pM] | binding result (CD73 V144K+N185G) | binding result (CD73 K180A+N185G) | Kd (human CD73 ECD [9]) [pM] | Kd (human CD73 ECD [10]) [pM]
MEDI9447 (73combo3, clone 10.3) (antibody, V domains shown) VH: EVQLLESGGGLVQPGGSLRLSCAASGFTFSSYAYSWVRQAPGKGLEWVSAISGSGGRTYYADSVKGRFTISRDNSKNTLYLQMNSLRAEDTAVYYCARLGYGRVDEWGRGTLVTVSS VL: QSVLTQPPSASGTPGQRVTISCSGSLSNIGRNPVNWYQQLPGTAPKLLIYLDNLRLSGVPDRFSGSKSGTSASLAISGLQSEDEADYYCATWDDSHPGWTFGGGTKLTVL | 4.1 | 1 | 0.9 | 4 | 154 | 113 | 113 | 154 | 81.4 | 26.9 | 2680 | 43.5 | no binding | no binding | 4.2 | 
MEDI9447 Fab (antibody, V domains shown) VH: EVQLLESGGGLVQPGGSLRLSCAASGFTFSSYAYSWVRQAPGKGLEWVSAISGSGGRTYYADSVKGRFTISRDNSKNTLYLQMNSLRAEDTAVYYCARLGYGRVDEWGRGTLVTVSS VL: QSVLTQPPSASGTPGQRVTISCSGSLSNIGRNPVNWYQQLPGTAPKLLIYLDNLRLSGVPDRFSGSKSGTSASLAISGLQSEDEADYYCATWDDSHPGWTFGGGTKLTVL |  |  |  |  |  |  |  |  |  |  |  |  |  |  |  | 327
